Consider 30 sequences from the nanobody polyreactivity screen of Harvey et al. (2022).

This data set in a line: yeast display, Sf9 membrane polyspecificity reagent, FACS + sequencing; frameworks hold sequencing errors. The procedure, abridged:
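Galactose-induced (36–48 hours) yeast carrying a synthetic nanobody display library were exposed to 10% biotinylated, detergent-solubilized Sf9 membrane reagent at 4 °C for 1 hour. FACS followed streptavidin microbead enrichment, using low and high (top ~1%) gates for expression (anti-HA) and reagent binding (streptavidin). Colony PCR, MiSeq 2 × 250 sequencing and CDR-length filtering followed. Labels for polyreactivity reflect the gate of origin.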
Regarding “QVQLVESGGGLVQAGGSLRLSCAASGFIFSPYAMGWYRQAPGKERELVAAINGGGRTYYADSVKGRFTISRDNAKNTVYLQMNSLKPEDTAVYYCAVDPISQGHMDYWGQGTQVTVSS”, the “polyreactivity (PSR sort gate)” value is “low polyreactivity”. To “QVQLVESGGGLVQAGGSLRLSCAASGSIFYENAMGWYRQAPGKEREFVATIDLIGDRTYYADSVKGRFTISRDNAKNTVYLQMNCLKPEDTAVYYCAAERVGVFFRYDYWGQGTQVTVSS” belongs “low polyreactivity”; to “QVQLVESGGGLVQAGGSLRLSCAASGRIFISNAKGWYIQAPGKERELVAAITWIGDRTYYADSVKGRFTISRDNAKITVYLEMNSLKPEDTAVYYCNRVTSRVSGRYSYEYWGQVTQVTVSS”, “high polyreactivity”. To “QVQLVESGGGLVQAGGSLRLSCAASGRTFYSNAMGWYRQAPGKERELVAAITSGGSTNYADSVKGRFTISRDNAKNTVYLQMNSLKPEDSAVYYCAVRGYWTIRSRRYYYWGQGTQVTVSS” belongs “high polyreactivity”; to “QVQLVESGGGLVQAGGSLRLSCAASGSTFYANAMGWYRQAPGKERELVAAITRSGAGTYYADSVKGRFTISRDNAKNTVYLQMNSLKPEDTAVYYCAKRTKTPTGYVWGGYDYWGQGTQVTVSS”, “high polyreactivity”; to “QVQLVESGGGLVQAGGSLRLSCPASGLNFTSYAMGWYRQAPGKERELVAAITWSGSSTYYADSVKGRFTISRDNAKNTVYLQMNSLKPEDTAVYYCAAYRYGRIYRQYAYDYWGQGTQVTVSS”, “high polyreactivity”. To “QVQLVESGGGLVQAGGSLRLSCAASGSIFTFYAMGWYRQAPGKERELVATINRIGGNTYYADSVKGRFTISRDNAKNSVYLLMKSLKPEETAVYYCAVCPYTRPYYRTFDHWGQGTLVTVSS” belongs “low polyreactivity”; to “QVQLVESGGGLVQAGGSLRLSCAASGSIFYWYAMGWYRQAPGKEREFVAAISRSDGSTYYADSLKRRFTISRDNAKNTVYLEMNRLKPEDTAVYYCAAERYYFPRSYRYGYWGQGTQVTVSS”, “low polyreactivity”. For “QVQLVESGGGLVQAGGSLRLSCAASGSIFQWYAMGWYRQAPGKERELVAAITISGTRTYYADSVKGRFTISRDNAKNTVYLQMNSLKPEDTAVYYCAARYTPRRYYYWGQGTQVTVSS”, the “polyreactivity (PSR sort gate)” value is given as “high polyreactivity”.

Regarding “QVQLVESGGGLVQAGGSLRLSCAASGRNFYYYAMGWYRQAPGKERELVATITGGGRTYYADSVKGRFTISRDNAKNTVYLQMHSLHPEDTAVYYCAAQYGGLSYRYDYWGQGTQVTVSS”, the “polyreactivity (PSR sort gate)” value is “high polyreactivity”.

As to “QVQHVESGGALVQAGGSLRLSCAASGSTFIKYAMGWYRQAPGKERELVAAISRSGASTYYADSVKGRFTLSRDNEKNTVYLQMKSLKPEDTAVYYCAARRRYLDHGYWGQGTQVTVSS”, the “polyreactivity (PSR sort gate)” value is given as “high polyreactivity”. The value for “QVQLVESGGGIVQAGGSLRLSCAASGSIFVENAMGWTRQAPGKERELVAAISSDASTNYADSVKGRFTISRDNAKNTVFLQRNSLKPEDTAVYYCAAGYNQHGQYDYWGQGTQVTVSS” was “low polyreactivity”. The value for “QVQLVESGGGLVQAGGSLSLSCAATGSIFPPNAMGWYRQAPGKEREFVASITSSGGITNYADSVKGRFTISRDTAKNTVYLQMNSLKTEDTAVYYCAAKYYGGTRFRPYGYWGQGTQVTVSS” was “high polyreactivity”. The value for “QVQLVESGGGLVQAGGSLRLSCAASGSTFFKNAMGWYRQAPGKERELVAAISTGGGSTTYADSVKGRFTISRDNAKNTVYLQMNSLKPEDTAVYYCAAVTLSSTYGGHDYWGQGTQVTVSS” was “high polyreactivity”; that for “QVQLVESGGGLVQAGGSLRLSCAASGRIFLGNAMGWYRQAPGKERELVAAIDASGGSTYYADSVKGRFTISRDNAKNTVYLQMNSLKPVDTAVYYCNAEPRYYSGGHGYDYWGQGTQVTVSS” was “low polyreactivity”; that for “QVQLVESVGGLVQAGGSLRLSCAASGNTFKYYAMGWYRQAPGKERELVAGITWTGGRTNYADSVKGRFTISRDNAKNTVYLQMNSLKPEDTAVYYCAADYWWYTGYDYWGQGTQVTVSS” was “high polyreactivity”. Regarding “QVQLVESGGGLVQAGGSLRLSCAASGSTFTPYVMGWYRQAPGKERELVASITGGGGSTYADSVKGRFTISRDNAKNTVYLQMNSLKPEDTAVYYCGARVWRSYNYWGQGTQVTVSS”, the “polyreactivity (PSR sort gate)” value was “high polyreactivity”. The value for “QVQLVESGGGLVQAGGSLRLSCAASGSSFTRYAMGWYRQAPGKERELVATINFSGDRTYYADSVKGRFTISRDNAKNTVYLQMNSLKPEDTAVYYCNNYSYQWPYRRFDYWGQGTLVTVSS” was “high polyreactivity”; that for “QVQLVESGGGLVQAGGSLRLSCAASGGTFKFYAMGWYRQAPGKERELVAAISRRGGNTYYADSVKGRFTISRDNAKNTVYLQMNSLKPEDTAVYYCAVDYRSTGFGYWGQGTQVTVSS” was “high polyreactivity”; that for “QVQLVESGGGLVQAGGSLRLSCAASGSIFLKNAMGWYRQAPGKERELVAAITPGGSTYYADSVKGRFTISRDNAKNTVYFQMNSLKPEDSAVYHCAARPGGGKYRGYYYWGQGTQVTVSS” was “high polyreactivity”. To “QVQLVVSGGGLVQAGGSLRLSCAASGSTFSLNAMGWYRQAPGKERELVAVITRGTSTYYADSVKGRFTISRDNAKNTVYLQMNRLTPEDNAVYYCAAAVWWSVVWAARYGYWGQGTQVTVSS” belongs “low polyreactivity”; to “QVQLVESGGGLVQAGGSLRLSCAASGRIFFYYAMGWYRQAPGKERELVAAISKSGGRTYYADSVKGRFTISRDNAKNTVYLQMNSLKPEDTAVYYCAAYSAHDSDYWGQGTQVTVSS”, “high polyreactivity”.

For “QVQLVESGGGLVQAGGSLRLSCADSGITLYYNAMGWYRQAPGKERELVAAISWSGDSTYYADSVKGRFTISRDNAKNTVYLQMNSLKPEDTAVYYCAADRYTYYHYAWYEYWGQGTQVTVSS”, the “polyreactivity (PSR sort gate)” value is reported as “low polyreactivity”.

Turning to “QVQLVESGGCLVQAGGSLRLSSAPSGSTFPVNAMGWYRQAAGKERELVAAITYRDGDTYYADSVKGRFTISRDYAKNTVYLQMNSLKPEDTAVYYCNADVGRHGKNSHMDYWGHGTQVTVSS”, the “polyreactivity (PSR sort gate)” value is “low polyreactivity”. For “QVQLVESGGGLVQAGGSLRLSCAASGFIFTGYTMGWYRQAPGKERELVAAISYRGGSTYYSDSVKGRFTISRDNAKNTVYLQMNSLKPEDTEVYFCAAESIYFYEYDYWGQGTQVTVSS”, the “polyreactivity (PSR sort gate)” value is “high polyreactivity”. “QVQLVESGGGLVQAGGSLRLSCAASGGIFIDYTMGWYRQAPGKERELVAAITRGGSTYYADSVKGRFTISRDNAKNTVYLQMNSLKPEDTAVYYCAARANTPVGHNRFGYWGQGTQVTVSS”: the “polyreactivity (PSR sort gate)” value is “low polyreactivity”. To “QVQLVESGGVLVQGRGSLRLSCDASGFTYYTNDMGWYRQAPWKERELVAAINSGGSTKYADSVKGRFPISRDNAKNTVYEQMNSLKPEETAVYYCNRDDNRKHSFGSVGYDYWGQGHQVTVSS” belongs “low polyreactivity”; to “QVQLVESGGGLVQAGGSLRLSCAASGSIFSIYAMEWYRQAPGKERELVAAITWGGGSTYYADSVKGRFTISRDNAKNTVYLQMNSLKPEDTAVYYCAADSLTWYGTYYYWGQGTQVTVSS”, “high polyreactivity”. On to “QVQLVESGGGLVQAGGSLRLRCAASGSILYSYTMGWYRQAPGKERELVAALIRGGRTNYADSVKGRFTISRDNAKNTVYLQMNSLKPEDTAVYYCNTGSYAWSWRRAMDYWGQGTQVTVSS”, for which the “polyreactivity (PSR sort gate)” value is “high polyreactivity”.

Turning to “QVQLVESGGGLVQAGGRLRLSCADSGRTYRKYAIGWYRQAPGKEMDMVAAISWSGGSTYYANSVKGRFTISRDNAKNTVYLQMNSLKPEDTAVYYCAAVPVHTGSLYWGFTTGYDYWGQGTQVTVSS”, the “polyreactivity (PSR sort gate)” value was “low polyreactivity”.
